Measured values published in patent US20230088052A1.
Read-outs that look alike come from different tables or passages of the source.

Key:
[1] = target: humanized Fc-tagged human IL-4R recombinant protein (h-IL-4R-Fc) (human) (UniProt P24394); test: blocking ELISA: human IL-4R-Fc coated, antibody blocks the binding of IL-4
[2] = target: his-tagged human IL-4R recombinant protein (h-IL-4R-his) (human) (UniProt P24394); test: binding ELISA, human IL-4R-his coated
[3] = target: his-tagged human IL-4R recombinant protein (h-IL-4R-his) (human) (UniProt P24394); test: binding ELISA, human IL-4R-his coated; remark: listed apart in the source
[4] = target: humanized Fc-tagged human IL-4R recombinant protein (h-IL-4R-Fc) (human) (UniProt P24394); test: blocking ELISA of human IL-4/IL-4R
[5] = target: his-tagged human IL-4R recombinant protein (h-IL-4R-his) (human) (UniProt P24394); test: binding ELISA, human IL-4R-his coated; remark: listed apart in the source
[6] = target: his-tagged human IL-4R recombinant protein (h-IL-4R-his) (human) (UniProt P24394); test: Biacore SPR: antibody captured, IL-4R antigen in flow, 1:1 model
[7] = target: humanized Fc-tagged human IL-4R recombinant protein (h-IL-4R-Fc) (human) (UniProt P24394); test: blocking ELISA: human IL-4R-Fc coated, antibody blocks the binding of IL-4; remark: listed apart in the source

Chain of Dupilumab (antibody) (VH): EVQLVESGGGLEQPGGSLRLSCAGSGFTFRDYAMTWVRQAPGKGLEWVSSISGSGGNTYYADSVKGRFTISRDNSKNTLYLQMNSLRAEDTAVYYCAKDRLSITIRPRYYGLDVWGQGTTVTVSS
Chain of Dupilumab (antibody) (VL): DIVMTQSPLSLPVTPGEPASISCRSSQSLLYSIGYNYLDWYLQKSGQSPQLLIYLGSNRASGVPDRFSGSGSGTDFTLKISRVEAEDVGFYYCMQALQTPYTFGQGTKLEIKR

- IC50 [1]: 0.0521 µg/mL
- EC50 [2]: 0.0276 µg/mL
- EC50 [3]: 0.0558 µg/mL
- IC50 [4]: 0.156 µg/mL
- EC50 [5]: 0.0426 µg/mL
- Kd [6]: 0.126 nM
- IC50 [7]: 0.209 µg/mL
Substance: Dupilumab (antibody)
